The record followed here is publication PMC10673952 (2023).

Assay [1] addresses T1, FimFt (E. coli).
T1 chain: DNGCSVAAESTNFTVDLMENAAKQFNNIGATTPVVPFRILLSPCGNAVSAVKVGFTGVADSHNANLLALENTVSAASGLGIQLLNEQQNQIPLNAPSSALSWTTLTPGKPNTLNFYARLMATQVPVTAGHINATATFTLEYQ
As to the kind of experiment: 37 °C, excess FimC; printed as 0.44 h-1.

Assay [2] addresses T2, FimF-FimGt (the two subunits of the ternary FimCHisFG complex) (E. coli, UniProt P08189 21-176; P08190 24-167).
T2 chain 1: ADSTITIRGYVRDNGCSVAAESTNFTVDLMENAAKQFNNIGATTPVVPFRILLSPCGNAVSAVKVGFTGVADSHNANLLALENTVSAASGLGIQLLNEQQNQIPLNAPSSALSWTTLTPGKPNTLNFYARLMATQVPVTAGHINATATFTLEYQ
T2 chain 2: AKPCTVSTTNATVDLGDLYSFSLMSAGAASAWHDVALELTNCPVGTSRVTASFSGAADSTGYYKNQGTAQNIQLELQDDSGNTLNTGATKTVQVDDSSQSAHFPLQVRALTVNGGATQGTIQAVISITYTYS
As to the kind of experiment: 37 °C, excess FimC; printed as 0.49 h-1.

Assay [3] addresses T3, FimI (E. coli W3110, UniProt P39264 20-179).
T3 chain: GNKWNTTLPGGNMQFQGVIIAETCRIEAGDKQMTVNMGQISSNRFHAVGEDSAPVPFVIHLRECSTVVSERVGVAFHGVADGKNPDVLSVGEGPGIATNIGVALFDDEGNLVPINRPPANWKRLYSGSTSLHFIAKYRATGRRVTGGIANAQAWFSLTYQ
As to the kind of experiment: 37 °C, excess FimC.

Assay [4] deals with T4, FimI-FimAtHis (the two subunits of the ternary FimCHisIA complex) (E. coli W3110 | E. coli, UniProt P39264 20-179; P04128 37-182).
T4 chain 1: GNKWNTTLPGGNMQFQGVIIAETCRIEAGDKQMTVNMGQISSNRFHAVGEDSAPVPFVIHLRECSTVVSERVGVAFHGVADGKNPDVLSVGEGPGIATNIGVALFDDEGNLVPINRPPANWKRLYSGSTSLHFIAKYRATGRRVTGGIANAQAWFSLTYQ
T4 chain 2: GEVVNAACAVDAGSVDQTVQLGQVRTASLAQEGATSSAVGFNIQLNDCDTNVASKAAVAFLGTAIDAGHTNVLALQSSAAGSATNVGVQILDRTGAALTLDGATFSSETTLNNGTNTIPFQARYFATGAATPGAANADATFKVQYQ
As to the kind of experiment: 37 °C, excess FimC; printed as 0.18 h-1.

B1: FimCHis (FimC with C-terminal hexahistidine tag) (natural protein)
chain: GVALGATRVIYPAGQKQEQLAVTNNDENSTYLIQSWVENADGVKDGRFIVTPPLFAMKGKKENTLRILDATNNQLPQDRESLFWMNVKAIPSMDKSKLTENTLQLAIISRIKLYYRPAKLALPPDQAAEKLRFRRSANSLTLINPTPYYLTVTELNAGTRVLENALVPPMGESTVKLPSDAGSNITYRTINDYGALTPKMTGVME
Take B1: the koff in assay [1] amounted to 0.000122 s⁻¹; in assay [2], 0.000136 s⁻¹; in assay [3], 0.011 s⁻¹; in assay [4], 5e-05 s⁻¹.
